Measurements: patent US20040259787A1 (published 2004)

Target: T1, C1q (UniProt P02745 23-245; P02746 28-253; P02747 29-245, radioiodinated (Bolton & Hunter) in the assay of FIG. 2)
T1 construct: mature; Purified native C1q; also called native fluid-phase C1q; radioiodinated C1q
Experiment: solid-phase domain, radioiodinated C1q, low salt
Experimental: Microtitre plates were coated with the N-, P-, C- and CUB-domains and with three controls, cC1qR, BSA and Thioredoxin, (8 mg/ml in 35 mM NaHCO3, 15 mM Na2CO3 pH 9.6) for 2 hr at 37° C. Non-specific interactions were blocked by incubation with 10 mM potassium phosphate, 0.5 mM EDTA pH 7.4 containing BSA (10 mg/ml). Any free —SH groups in the samples, due to the presence of the thioredoxin fusion protein, were blocked by a brief washing step using the phosphate buffer containing 2 mM iodoacetamide. […] Wells were washed three times with phosphate buffer and bound radioactivity eluted with 100 ml 4M NaOH and measured.

T1 sequence (P02745 23-245, chain 1 of 3): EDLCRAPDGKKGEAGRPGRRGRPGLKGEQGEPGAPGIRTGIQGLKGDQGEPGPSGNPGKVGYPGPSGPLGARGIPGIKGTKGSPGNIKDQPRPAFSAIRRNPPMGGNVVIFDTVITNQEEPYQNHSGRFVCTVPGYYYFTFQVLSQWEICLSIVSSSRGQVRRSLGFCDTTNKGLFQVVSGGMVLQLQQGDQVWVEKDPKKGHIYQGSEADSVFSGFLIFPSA
T1 sequence (P02746 28-253, chain 2 of 3): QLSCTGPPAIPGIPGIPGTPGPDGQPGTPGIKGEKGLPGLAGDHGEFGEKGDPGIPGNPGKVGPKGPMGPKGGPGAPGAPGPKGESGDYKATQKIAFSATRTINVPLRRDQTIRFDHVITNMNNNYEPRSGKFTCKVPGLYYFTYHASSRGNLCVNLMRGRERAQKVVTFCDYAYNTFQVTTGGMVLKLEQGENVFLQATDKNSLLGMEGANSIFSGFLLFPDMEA
T1 sequence (P02747 29-245, chain 3 of 3): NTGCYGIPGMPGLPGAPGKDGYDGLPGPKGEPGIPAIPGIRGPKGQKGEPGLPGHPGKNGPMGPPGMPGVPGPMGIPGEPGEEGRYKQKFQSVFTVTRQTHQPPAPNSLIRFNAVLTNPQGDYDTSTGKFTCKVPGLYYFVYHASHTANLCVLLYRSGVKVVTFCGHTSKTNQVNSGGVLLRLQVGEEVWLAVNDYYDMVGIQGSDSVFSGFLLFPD

B1: recombinant C-domain of human cC1qR/CRT, thioredoxin fusion protein (other)
chain: DNFGVLGLDLWQVKSGTIFDNFLITNDEAYAEEFGNETWGVTKAAEKQMKDKQDEEQRLKEEEEDKKRKEEEEAEDKEDDEDKDEDEEDEEDKEEDEEEDVPGQAKDEL
notes: not shown: thioredoxin fusion partner from plasmid pTrxfus (Invitrogen), expressed in E. coli
B1: no binding.
